B3: FLAG-tagged human vascular endothelial growth factor-A (FLAG-hVEGF-A) (ligand)
chain: APMAEGGGQNHHEVVKFMDVYQRSYCHPIETLVDIFQEYPDEIEYIFKPSCVPLMRCGGCCNDEGLECVPTEESNITMQIMRIKPHQGQHIGEMSFLQHNKCECRPKKDRARQENPCGPCSERRKHLFVQDPQTCKCSCKNTDSRCKARQLELNERTCRCDKPRR

What all share (test): SPR
For assay [1], the target named is B3.
The target in the next assay is B021.
The target in another assay is B015.

B1: anti-hVEGF-A clone A033AM-19 (affinity-matured from A033) (antibody, V domains shown)
VH: EVELVQSGAEVKKPGSSVKVSCKASGGTFSDYSISWVRQAPGQGLEWMGGIIPIFGTPNYAQKFQGRVTITADESTSTAYMELSSLRSEDTAVYYCADGGAYCGGDCYSGYYYYGMDVWGQGTTVTVSS
VL: QSALTQPASVSGSPGQSITISCTGTSSDVGGYNLVSWYQQHPGKAPKLMIYQDNNKRPSGVSNRFSGSKSGNTASLTISGLQAEDEADYYCSYTNDSNSQVFGGGTKLTVL
As usually defined, the koff is a measure of how fast the partners let go of each other. Molecule B1 had a koff in assay [1] of 0.000411 s⁻¹.

B2: anti-hVEGF-A clone A033 (antibody, V domains shown)
VH: EVELVQSGAEVKKPGSSVKVSCKASGGTFSSYAISWVRQAPGQGLEWMGGIIPIFGTPNYAQKFQGRVTITADESTSTAYMELSSLRSEDTAVYYCADGGAYCGGDCYSGYYYYGMDVWGQGTTVTVSS
VL: QSALTQPASVSGSPGQSITISCTGTSSDVGGYNLVSWYQQHPGKAPKLMIYQDNNKRPSGVSNRFSGSKSGNTASLTISGLQAEDEADYYCSYTNDSNSQVFGGGTKLTVL
B2 had a koff in assay [1] of 0.00405 s⁻¹.
Usually Kd stands for the constant that tells how readily two partners part at equilibrium. Consider B3, for which the Kd with B021 stood at 0.903 nM; with B015 it was 0.0294 nM. The koff was found to be 0.000577 s⁻¹ with B021 and 0.000549 s⁻¹ with B015.

The record behind these values is article PMC8166883 (2020).
